Reference: patent US20230365642A1

Target: high affinity IL-2 receptor (IL-2R) consisting of CD122, CD132 and CD25, on CTLL-2 cells (mouse) (UniProt P01590)
Experiment: cell-based or functional assay

high affinity IL-2 receptor (IL-2R) consisting of CD122, CD132 and CD25, on CTLL-2 cells (mouse), sequence (P01590 22-268, chain 1 of 3): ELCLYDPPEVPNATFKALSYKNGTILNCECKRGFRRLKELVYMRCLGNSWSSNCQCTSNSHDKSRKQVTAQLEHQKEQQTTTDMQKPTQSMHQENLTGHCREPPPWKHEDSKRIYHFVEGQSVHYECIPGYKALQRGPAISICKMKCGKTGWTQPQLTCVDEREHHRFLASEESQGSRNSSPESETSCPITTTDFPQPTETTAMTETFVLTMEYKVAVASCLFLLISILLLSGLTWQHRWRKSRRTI
high affinity IL-2 receptor (IL-2R) consisting of CD122, CD132 and CD25, on CTLL-2 cells (mouse), sequence (P16297 27-539, chain 2 of 3, further chain): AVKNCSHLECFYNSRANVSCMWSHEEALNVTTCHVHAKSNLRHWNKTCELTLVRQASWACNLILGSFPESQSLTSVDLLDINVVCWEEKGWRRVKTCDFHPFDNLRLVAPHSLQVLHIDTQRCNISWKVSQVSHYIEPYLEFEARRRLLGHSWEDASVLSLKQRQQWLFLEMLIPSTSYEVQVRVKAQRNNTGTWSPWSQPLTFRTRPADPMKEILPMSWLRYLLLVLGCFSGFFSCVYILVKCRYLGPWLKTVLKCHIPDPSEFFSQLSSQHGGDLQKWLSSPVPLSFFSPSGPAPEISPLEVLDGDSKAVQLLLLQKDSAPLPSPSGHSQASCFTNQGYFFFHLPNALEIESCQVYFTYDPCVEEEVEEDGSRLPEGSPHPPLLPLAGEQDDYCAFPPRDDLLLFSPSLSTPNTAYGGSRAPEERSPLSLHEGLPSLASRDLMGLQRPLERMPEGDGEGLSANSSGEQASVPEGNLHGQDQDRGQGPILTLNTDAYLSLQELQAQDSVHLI
high affinity IL-2 receptor (IL-2R) consisting of CD122, CD132 and CD25, on CTLL-2 cells (mouse), sequence (P34902 23-369, chain 3 of 3, further chain): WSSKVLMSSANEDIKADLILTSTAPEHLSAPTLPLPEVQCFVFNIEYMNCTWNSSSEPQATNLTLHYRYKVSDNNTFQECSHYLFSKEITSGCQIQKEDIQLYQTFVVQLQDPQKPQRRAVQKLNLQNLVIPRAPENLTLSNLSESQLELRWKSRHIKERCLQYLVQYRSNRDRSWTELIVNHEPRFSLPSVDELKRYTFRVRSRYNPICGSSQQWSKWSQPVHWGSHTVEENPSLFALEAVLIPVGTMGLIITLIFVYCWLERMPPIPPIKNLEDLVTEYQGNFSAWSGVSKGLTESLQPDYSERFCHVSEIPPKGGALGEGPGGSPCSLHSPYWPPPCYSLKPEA

CTLL-2 cell proliferation, EC50: 6.4 pM
Substance: rhIL-2 (from UniProt P60568 21-153) (ligand)
